These are literature values, as cited in PMC2864607.

Among the targets are His322 (UniProt position 324, WHWTGHNVKHK); His318 (UniProt position 320, VSSTWHWTGHN); His326 (UniProt position 328, GHNVKHKSAIV); His451 (UniProt position 451, EASGCHYGVLT); His203 (UniProt position 203, LTPHRHRVSAI); His49 (UniProt position 49, PGIICHLDDPK).
Series [1] relates to His2 (position 2, ----GHG----). The series can be described thus: NMR. To be noted: 25 °C; 0.02 M NaCl; Free model peptide.
Series [2] deals with His3 (position 3, ---KSHPE---). The series can be described thus: NMR. As to conditions: 25 °C, 0.02 M NaCl, Free model peptide.
Series [3] concerns the target His3 (position 3, ---FKHLK---). The series can be described thus: NMR. As to conditions: 25 °C; 0.02 M NaCl; Free model peptide.
Setting [4] is: Protein bound specifically to its cognate DNA recognition sequence.

Where two headings read alike, the source gives them in different places.

Broadly, the pKa is the pH at which an ionisable group is half protonated. As to “E2 protein C-terminal DNA-binding domain (E2C) (Human papillomavirus type 16)”, the pKa with His322 (setting [4]) is 6.3; with His322 (Unbound protein (no DNA)), 6.3; with His318 (setting [4]), 7.8; with His318 (Unbound protein (no DNA)), 6.7; with His326 (setting [4]), 6.2; in the series with His326 (Unbound protein (no DNA)), 6.2.

Consider “GHG model tripeptide (Gly-His-Gly) (synthetic)”, for which the pKa in series [1] is 6.68 ± 0.02.

Consider “Glucocorticoid receptor (DNA-binding domain) (Rattus norvegicus)”, for which the pKa is recorded as 7.9 in the series with His451 (setting [4]) and 5.9 with His451 (Unbound protein (no DNA)).

Consider “Large T antigen origin-binding domain (T-ag-obd) (Simian virus 40)”, for which the values for the pKa with His203 (setting [4]) and with His203 (Unbound protein (no DNA)) were more than 8 and approximately 5, respectively.

For the molecule “TATA-binding protein (PwTBP) (Pyrococcus woesei)”, the values for the pKa with His49 (setting [4]) and in the series with His49 (Unbound protein (no DNA)) were 7.2 and 6.2, respectively.

B1: KSHPE model peptide (myoglobin-derived) (synthetic (sequence from Physeter macrocephalus myoglobin)) (peptide)
chain: KSHPE
Consider B1, for which the pKa in [2] (cis His-Pro isomer) is given as 6.23 ± 0.02; in series [2] (trans His-Pro isomer), 6.69 ± 0.02.

B2: FKHLK model peptide (myoglobin-derived) (synthetic (sequence from Physeter macrocephalus myoglobin)) (peptide)
chain: FKHLK
For the molecule B2, the pKa in [3] was 6.16 ± 0.02.
